In assay [1] the target is receptor for Angptl2 expressed on mouse bone marrow hematopoietic stem cells (unidentified) (mouse). The experiment in a line: flow cytometry; fresh mouse bone marrow cells, ~1 ug/ml Angptl2-hFc at 4 C for 30 min, anti-human IgG1-PE. (A flow cytometer gives signals particle by particle.)
Assay [2] shares this target. The experiment in a line: flow cytometry; 4 day cultured mouse bone marrow cells, ~1 ug/ml Flag-Angptl2 medium.

As to “Angptl2-hFc (human Angptl2 fused to Pro 100-Lys 330 of human IgG1 Fc) (from UniProt Q9UKU9 23-493) (Fc fusion)”, the percent of total bone marrow cells that bind in assay [1] stood at 12.8%.

In assay [2], “FLAG-hAngptl2 (human Angptl2 with a FLAG tag fused at the C-terminus) (from UniProt Q9UKU9 23-493) (ligand)” returned a percent of total cells that bind of 5.3%.

(Values after patent US20070020757A1.)
